Source: the DeepSol protein solubility set

assay: soluble on expression in E. coli; label from the status in PepcDB or PDB records

| Sequence | soluble on expression in E. coli |
| --- | --- |
| MEAESAPQAPMSGGRVLKMVTEMGSATVGGISPALSANAAKSFLEATDKEKKTLQGLNDRLGNYIDRVKKLEEQNRKLVADLDELRGKWGKDTSEIKIKYSESLSTARKDIDDAARRKAEVDVKVARHRDDLAEYRSRYEDIQQRRESDREKISQWTNAIADAQSEVEMLRARFKQLTDEEKRVTADNSRIWEELQKARSDLDDETIGRIDFQNQVQTLMEELEFLRRVHEQEVKELQALLAQAPADTREFFKNELALAIRDIKDEYDIIAKQGKQDMESWYKLKVSEVQGSANRANMESTYQRDEVKRMRDNIGDLRGKLGDLENKNSLLEKEVQNLNYQLTDDQRQYEAALNDRDATLRRMREECQTLVAELQALLDTKQMLDAEIAIYRKMLEGEETRVGLTQMVEQAVKTHSLQQQENTDSTRSVRGEVSTKTTFQRSAKGNVTISECDPNGKFIKLENSHRNKDENVGEHKIRRKLDGRREIVYSIPANVVIKPGKNLTIYARDQGGINNPPESLVFDGENTWGIGANVVTSLVNKDGEERATHTQKTIQSGQ | not soluble |
| MEAESLADSGFPLEVFPQKMQSIIIDMVVHGNFKVDYVAMSMLSAASAALGNTYRIHVKQDWDTNAALYIILVGRPGMGKTPPLQLAYKPIREYERKLFDKFCHELDLYEAACATKESGSKEMKKPILKRVTLDDFTLEALVLEHYNNLRGIAINYDEILGLLANTDRYGKNPMLERLLSIWSGCHLENTRVKNDRPQRVEEPCVNIIGTTQTKRMKELMASKFMDTGFLDRILVVYPKSKKVPHWLDEEDSHVRQSEASRKWADIIGKIFGLDYARCNDTNECCPNILYMDKDAHSLFFGWWNRNVDAINAIEDDEDVETRVMKHNTHVARIALLLQALRYACGESHLQSIDVDSIEGALRLNEYCENCYQRCRAFVAEDTCDSMSKELLYLLEDSFDTKTAIKTGMENLHVTDRTVMNYIKELMKSGLITKAKKGFYEKVKFETGQATET | not soluble |
| MEALILEPSLYTVKAILILDNDGDRLFAKYYDDTYPSVKEQKAFEKNIFNKTHRTDSEIALLEGLTVVYKSSIDLYFYVIGSSYENELMLMAVLNCLFDSLSQMLRKNVEKRALLENMEGLFLAVDEIVDGGVILESDPQQVVHRVALRGEDVPLTEQTVSQVLQSAKEQIKWSLLR | not soluble |
| MEAQNRIEDHGIIGDMRSAALIADTGSIDFCCWPDFDSPSIFTALLDTPDAGIFQLAPDLPDARRLQIYLPDTNVLQTRWIAEQAVVEVTDLMPIGEDQDDLPRIVRRVQVRFGEATIRMRCRVRMDYSRALEHHHHHH | not soluble |
| MEDEIKSFEKDRNLIIEDSKNSKNNIVDVQKLIEALKDEKNAKNIVVDFTEYNPLHNGHKYCMDFGKSEGLFISVIPGPLERSGRGIPYLVNRHIRAEMALLAGADLVVEGPPMGIMGSGQYMQCLIKIFSALNGDIIPRGYIEEETMERVINSINNGNHIKIKPYNISCIETREKLGEKLEIDNYVIASMSYTIYKLKENFPKWNPKFKFIERIEGISGTKIREGVFNNNFESIKHMLPITTIDVFKNFGDNLSEIILKRNEEMVLDTVNNFDLNKYLPENISEKLNEKEYYESIEEIKEYIPRGFSKNNIERTISKLEARIEKETISKYIENYPANLRILNGINNHE | not soluble |
| MEDIKIKEIFENIYEVDLGDGLKRIATKSIVKGKKVYDEKIIKIGDEEYRIWNPNKSKLAAAIIKGLKVMPIKRDSKILYLGASAGTTPSHVADIADKGIVYAIEYAPRIMRELLDACAERENIIPILGDANKPQEYANIVEKVDVIYEDVAQPNQAEILIKNAKWFLKKGGYGMIAIKARSIDVTKDPKEIFKEQKEILEAGGFKIVDEVDIEPFEKDHVMFVGIWEGK | soluble |
| MEDLYPSRQNNQPKILKRKDPVIYTDRSKDNQAPITKEQLDSYEKNGFLQIKNFFSEDEVIDMQKAIFELQDSIKDVASDKVIREPESNDIRSIFHVHQDDNYFQDVANDKRILDIVRHLLGSDVYVHQSRINYKPGFKGKEFDWHSDFETWHVEDGMPRMRAISVSIALSDNYSFNGPLMLIPGSHNYFVSCVGETPDNNYKESLKKQKLGVPDEESLRELTRIGGGISVPTGKAGSVTLFESNTMHGSTSNITPYPRNNLFMVYNSVKNRLVEPFSGGEKRPEYIAVREKQPVYSAVNSAWSHPQFEK | soluble |
| MEDYEGKFSPSELKLKGIHTSTTFWTVGMIVQQYKNGHLVIPKIQRGYVWNEEKARRFIMSLLQGFPIPPIFIIELSGKFYVVDGQQRIRTILWFLGEDNELLEKLGPLRVPIKELAENYNEYGVTNLSEAIIKKIIFGNHPKEFNYKYFTKDFRQYFESLSIPVQHISISSGKEYILTDIFLRINQGSVKLSAMELWRVYYGKDIEEYFHKLNELARYTVAKIYEVSNGKISRQKLERFRIDEFILTFDVLINGLITPPNYIPKDAKLGAVIFSQKTTLKKVKIFVLENRRKVFKNNKGELKKFLDYLEREYKEILKMITYVLGEFTFRRPTIGNECQYALIRPSGNDINEAVFLYEVAIFKLLKDNGHSELIYENKDFIKHVILTSLIENDELFSRSTSTFRSVANKLELAKLTYKKIITKEDNITKDNLKRLLYEKFRASRVSNPVCPYCKEPISDISVADLAHIRPLAFGGQTYIHNLTLAHSTCNRRFGVRDISQYINRC | soluble |
| MEEDNQQDQNNQYVIYHPFFSEGCHFYFIISCTNSFIRVALKIGLIGDSQIGKTSLMVKYVEGSFDEDYIQTLGVNFMDKKIQIRNTTITFSIWDLGGQKEFINMLPLVSNDAVAILFMFDLTRKSTLNSIKEWYRQVRGFNKTAIPFLVGTKYDQFIDLSFQDQIEITQQAKKFGSAMKAPVIFCSTSHSINVQKIFKIILSKAFDLKLNLDEIVNVGEPILIYK | not soluble |
| MEEKTILAQILQVLDLYAADMRKQFEALHEKFDSLQRQVQALNEKTDEMDKRIEEMDGRFERQIAQLERTVNERFERLEAKLGHIRVELVETQETVDFHSVKIAQHDRKIRHLLHAR | not soluble |
| MEESPTKTFKCPKCWNKFENKPKLITHVDLECKHKYFRCELCDFKSTQKTGLTSHYHGHIRQSNVIHCPYCKKKKTFKSRNNLMVHVHHYHPTHINEMKQANLESAKEEKMKTMLEKQAKEAHEFEISQPAVFEKDFASYDLPMFSQCPPMNGIPVSTPIEYPYSQNPYQDHTPFDSYPYPNFHPQQLPLPTFENNLPDIATYFDL | not soluble |
| MEFDKLYGPSNVENRLVQVKATTAEAIHFNRQIQPIIENRCVVCHGCYDAPCQLKMESRAGIERGANKAMVYNGERLLTANISASLTKLTELKRDNLEPLRQQGYFPVLNERQQTEQANTQSSLFYQMLQLKKQHPLPSEPILNESFDVALDRSQQCPTIEEFEQYKDKYPLGGMPYALPALSTTEHDQLTDWIARGAIMPDSVPPNAKEQQMINRWEKLLNGSSAKEQLIARYLFEHLYLANLYFDKAQSSYFKLVRSSSPSGEKVAVITTRRPFDSPYADGSTDAIVDKPQVYYRLIKHNDTIIAKRHMPYPFGESKLARISELFYQPDYPVTTLPDYQLANASNPFKTFQAIPDKARYQFLLDQAQFSIMNFIKGPVCRGQIALNVIEDNFWVFFLSPNNFDHYPSEQFIKANTELLQLPAGTSDKSLSLLYWRQYAKSQQEYVKNKLAYVEGLNLQPNQLNLDLIWSGKGNPNASLTVFRHFDSASVLQGFVGPTPKTAWLISYPLLERIHYLLVAGFDVYGSVSHQLKTRLYMDFLRMEAESNFISFLPKDERKAIHEYWYRETGDDIKDYIFSDGFYQLPETGMNYQSNKHQEELFQLVGQHTKNTNVSQFNLSSLAQSSADKIIANLSQLPNESVALLPQVSYVMVSNGDDNQVYSLINNSAHSNVAHLFSEENRRLPREDNLAILRGVVGTYPNAFFKVEQAQLSEFVSNLNAIKTEQDYRKLKDQFAIRRTNPKFWIFADELHAWYKTNQPKSAGLLDFNRLENRLEHHHHHH | not soluble |
| MEFKNTKKDRLSDLENRFENANKHETNKHEKEDRKKAHTLYISEKVMNSVEEYLNEFGAFRENKSVFVQDAIIFYLEYKKKEMKQMLLDKASKL | not soluble |
| MEFTGKIIAILPPRGGVSKTSGNEWKSQEFVIENHDQYPRKMCFDVFGADKIEQFNIQMGEELTVSFDVDARQWNDRWFNSIRAWKVERVGAGAPMTPGAPVPPPAPSATPDFTMGDAKDDLPF | not soluble |
| MEGGSITPGEDKPEIQSPIPPNQIFILSGQSNMAGRGGVFKDHHNNRWVWDKILPPECAPNSSILRLSADLRWEEAHEPLHVDIDTGKVCGVGPGMAFANAVKNRLETDSAVIGLVPCASGGTAIKEWERGSHLYERMVKRTEESRKCGGEIKAVLWYQGESDVLDIHDAESYGNNMDRLIKNLRHDLNLPSLPIIQVAIASGGGYIDKVREAQLGLKLSNVVCVDAKGLPLKSDNLHLTTEAQVQLGLSLAQAYLSNFC | soluble |
| MEGMKGAVLITGASRGIGEATARLLHAKGYRVGLMARDEKRLQALAAELEGALPLPGDVREEGDWARAVAAMEEAFGELSALVNNAGVGVMKPVHELTLEEWRLVLDTNLTGAFLGIRHAVPALLRRGGGTIVNVGSLAGKNPFKGGAAYNASKFGLLGLAGAAMLDLREANVRVVNVLPGSVDTGFAGNTPGQAWKLKPEDVAQAVLFALEMPGHAMVSEIELRPTRPTSGPR | soluble |
| MEGVQEVEIDAPLSGWHPAEGEDASFSQSINYPASSVNMADDQNISAQIRGKIKNYAAAGKVQQGRLVVNGASMPQRIESDGSFARPYIFTEGSNSVQVISPDGQSRQKMQFYSTPGTGTIRARLRLVLSWDTDNTDLDLHVVTPDGEHAWYGNTVLKNSGALDMDVTTGYGPEIFAMPAPVHGRYQVYINYYGGRSETELTTAQLTLITDEGSVNEKQETFIVPMRNAGELTLVKSFDWLEHHHHHH | soluble |
| MEHRPVLETESNLVITLVADIVAAYVSNNSIRPTEVPSLIADVHAAFRKAGNADLTEVEVEKQRPAVNPKRSIFPDYLICLEDGKKFKSLKRHLMTHYGMLPEEYREKWQLDSSYPMVAPNYAKARSALAKEMGLGRKSKRKKTK | not soluble |
| MEIIFYHPTFNAAWWVNALEKALPHARVREWKVGDNNPADYALVWQPPVEMLAGRRLKAVFVLGAGVDAILSKLNAHPEMLDASIPLFRLEDTGMGLQMQEYAVSQVLHWFRRFDDYQALKNQALWKPLPEYTREEFSVGIMGAGVLGAKVAESLQAWGFPLRCWSRSRKSWPGVESYVGREELRAFLNQTRVLINLLPNTAQTVGIINSELLDQLPDGAYVLNLARGVHVQEADLLAALDSGKLKGAMLDVFSQEPLPQESPLWRHPRVAMTPHIAAVTRPAEAIDYISRTITQLEKGEPVTGQVDRARGY | not soluble |
| MEIIHLSEIDSTNDYAKELAKEGKRNFIVLADKQNNGKGRWGRVWYSDEGGLYFSMVLDSKLYNPKVINLLVPICIIEVLKNYVDKELGLKFPNDIMVKVNDNYKKLGGILTELTDDYMIIGIGINVNNQIRNEIREIAISLKEITGKELDKVEILSNFLKTFESYLEKLKNKEIDDYEILKKYKKYSITIGKQVKILLSNNEIITGKVYDIDFDGIVLGTEKGIERIPSGICIHVR | soluble |
| MEIKPTPSPPEERTIYVANFSEEVDEELLEELFIQAGPVVKVILRDVRDSNAKFALVEFEDELSVLFAIELMNGVRLFNQELQVKPRNGTNQEELYKRKKGEIEERVRSVAAPDRDGRRDSYRDDRNRNRNGNNRDSWQQQQPPRHHRQYDPLPPPPPPPLMGGSGGHWRSGGERGPPQYSTPQMLPHQHFVNQMMQQQINRSAPPYNGRHQNSTPHRHHDRHGYDRSSSRHHRNDDRRRSAHFLDIRKFQAPPTSWAFGNFQCFFWNLFSKITYLQEVGGA | not soluble |
